Results: paper doi:10.1101/2020.03.11.988071 (bioRxiv, 2020)
Each block holds one binder with its values, some of them ahead of it.

Molecular target: T1, 4H.01 (synthetic construct (de novo design))
T1 chain: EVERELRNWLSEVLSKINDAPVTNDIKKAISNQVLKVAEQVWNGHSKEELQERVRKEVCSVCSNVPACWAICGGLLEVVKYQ
Assay: SPR

Kd: 200 nM
B1: 2D10 IgG (antibody, V domains shown)
VH: QVQLVQSGPEVKKPGASVRLSCKASGYVFTNYGVSWVRQAPGQGLEWMGWSSPYNGNTYYAQKLKARVTMTTDTSTNTAYMELRSLRSDDTAVYYCGRDMLGVVQAVAGPFDSWGQGTLVTVSS
VL: DTPMTQSPSSVSASVGDRVTISCRASQGISNSLAWYQQKLGKAPQLLIYAASSLQSGVPSRFSGSGSGTDFTLTISSLQPEDFATYYCQQTNTFPFTFGPGTKVEVR

Kd: 0.5 nM
B2: Motavizumab IgG (antibody, V domains shown)
VH: QVTLRESGPALVKPTQTLTLTCTFSGFSLSTAGMSVGWIRQPPGKALEWLADIWWDDKKHYNPSLKDRLTISKDTSKNQVVLKVTNMDPADTATYYCARDMIFNFYFDVWGQGTTVTVSS
VL: DIQMTQSPSTLSASVGDRVTITCSASSRVGYMHWYQQKPGKAPKLLIYDTSKLASGVPSRFSGSGSGTEFTLTISSLQPDDFATYYCFQGSGYPFTFGGGTKVEIK
